Starred links: 1 amine or outer side, 2 acyl side, 3 side chain; linkers in the order of their positions; H or OH if unused. Positions of bridges follow the written chain, without caps; N, C: chain ends. Groups on a side chain read outwards from the residue. No end group written: not given here. *: point of attachment. C20 diacid = O=C(O)CCCCCCCCCCCCCCCCCCC(=O)*; C18 diacid = O=C(O)CCCCCCCCCCCCCCCCC(=O)*; γGlu = O=C(O)[C@H](CCC(=O)[*:2])N[*:1]; AEEA = NCCOCCOCC(=O)O
T1: human calcitonin (a) receptor (human, UniProt P30988 25-474)
T1 sequence (looked up): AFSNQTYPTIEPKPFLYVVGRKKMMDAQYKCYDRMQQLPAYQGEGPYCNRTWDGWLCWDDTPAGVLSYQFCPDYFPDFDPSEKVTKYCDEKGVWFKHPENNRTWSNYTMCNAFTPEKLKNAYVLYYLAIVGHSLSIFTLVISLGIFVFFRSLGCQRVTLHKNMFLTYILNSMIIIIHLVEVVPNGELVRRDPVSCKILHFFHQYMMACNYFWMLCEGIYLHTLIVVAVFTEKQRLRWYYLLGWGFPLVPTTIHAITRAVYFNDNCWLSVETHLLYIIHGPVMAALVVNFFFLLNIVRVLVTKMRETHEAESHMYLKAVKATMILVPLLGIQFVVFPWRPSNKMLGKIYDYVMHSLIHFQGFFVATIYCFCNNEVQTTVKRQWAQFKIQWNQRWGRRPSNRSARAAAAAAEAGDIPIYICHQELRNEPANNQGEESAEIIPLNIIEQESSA

T2: human amylin 3(a) receptor (human calcitonin receptor + RAMP-3) (human, UniProt P30988 25-474; O60896 24-148)
T2 sequence (looked up) 1: T1 sequence (looked up)
T2 sequence (looked up) 2: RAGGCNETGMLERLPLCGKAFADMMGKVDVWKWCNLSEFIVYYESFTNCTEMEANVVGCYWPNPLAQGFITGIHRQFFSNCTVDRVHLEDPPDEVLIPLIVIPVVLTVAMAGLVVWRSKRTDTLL

B1: N-alpha-[(S)-4-Carboxy-4-(19-carboxynonadecanoylamino)butyryl]-His-His-[Glu14,His17,His35]-pramlintide (peptide)
peptide: {C20 diacid-γGlu}-HHKCNTATCATQRLAEFLHHSSNNFGPILPPTNVGSHTY-NH2
modifications: disulfide 4-9
SMILES: CC[C@H](C)[C@H](NC(=O)[C@@H]1CCCN1C(=O)CNC(=O)[C@H](Cc1ccccc1)NC(=O)[C@H](CC(N)=O)NC(=O)[C@H](CC(N)=O)NC(=O)[C@H](CO)NC(=O)[C@H](CO)NC(=O)[C@H](Cc1c[nH]cn1)NC(=O)[C@H](Cc1c[nH]cn1)NC(=O)[C@H](CC(C)C)NC(=O)[C@H](Cc1ccccc1)NC(=O)[C@H](CCC(=O)O)NC(=O)[C@H](C)NC(=O)[C@H](CC(C)C)NC(=O)[C@H](CCCNC(=N)N)NC(=O)[C@H](CCC(N)=O)NC(=O)[C@@H](NC(=O)[C@H](C)NC(=O)[C@@H]1CSSC[C@H](NC(=O)[C@H](CCCCN)NC(=O)[C@H](Cc2c[nH]cn2)NC(=O)[C@H](Cc2c[nH]cn2)NC(=O)CC[C@H](NC(=O)CCCCCCCCCCCCCCCCCCC(=O)O)C(=O)O)C(=O)N[C@@H](CC(N)=O)C(=O)N[C@@H]([C@@H](C)O)C(=O)N[C@@H](C)C(=O)N[C@@H]([C@@H](C)O)C(=O)N1)[C@@H](C)O)C(=O)N[C@@H](CC(C)C)C(=O)N1CCC[C@H]1C(=O)N1CCC[C@H]1C(=O)N[C@H](C(=O)N[C@@H](CC(N)=O)C(=O)N[C@H](C(=O)NCC(=O)N[C@@H](CO)C(=O)N[C@@H](Cc1c[nH]cn1)C(=O)N[C@H](C(=O)N[C@@H](Cc1ccc(O)cc1)C(N)=O)[C@@H](C)O)C(C)C)[C@@H](C)O
B2: N-alpha-[(S)-4-Carboxy-4-(17-carboxyheptadecanoylamino)butyryl]-His-[Glu14,His17,His35]-pramlintide (peptide)
peptide: {C18 diacid-γGlu}-HKCNTATCATQRLAEFLHHSSNNFGPILPPTNVGSHTY-NH2
modifications: disulfide 3-8
SMILES: CC[C@H](C)[C@H](NC(=O)[C@@H]1CCCN1C(=O)CNC(=O)[C@H](Cc1ccccc1)NC(=O)[C@H](CC(N)=O)NC(=O)[C@H](CC(N)=O)NC(=O)[C@H](CO)NC(=O)[C@H](CO)NC(=O)[C@H](Cc1c[nH]cn1)NC(=O)[C@H](Cc1c[nH]cn1)NC(=O)[C@H](CC(C)C)NC(=O)[C@H](Cc1ccccc1)NC(=O)[C@H](CCC(=O)O)NC(=O)[C@H](C)NC(=O)[C@H](CC(C)C)NC(=O)[C@H](CCCNC(=N)N)NC(=O)[C@H](CCC(N)=O)NC(=O)[C@@H](NC(=O)[C@H](C)NC(=O)[C@@H]1CSSC[C@H](NC(=O)[C@H](CCCCN)NC(=O)[C@H](Cc2c[nH]cn2)NC(=O)CC[C@H](NC(=O)CCCCCCCCCCCCCCCCC(=O)O)C(=O)O)C(=O)N[C@@H](CC(N)=O)C(=O)N[C@@H]([C@@H](C)O)C(=O)N[C@@H](C)C(=O)N[C@@H]([C@@H](C)O)C(=O)N1)[C@@H](C)O)C(=O)N[C@@H](CC(C)C)C(=O)N1CCC[C@H]1C(=O)N1CCC[C@H]1C(=O)N[C@H](C(=O)N[C@@H](CC(N)=O)C(=O)N[C@H](C(=O)NCC(=O)N[C@@H](CO)C(=O)N[C@@H](Cc1c[nH]cn1)C(=O)N[C@H](C(=O)N[C@@H](Cc1ccc(O)cc1)C(N)=O)[C@@H](C)O)C(C)C)[C@@H](C)O
B3: N-alpha-[(S)-4-Carboxy-4-(19-carboxynonadecanoylamino)butyryl]-His-His-[Glu14,Arg17,His35]-pramlintide (peptide)
peptide: {C20 diacid-γGlu}-HHKCNTATCATQRLAEFLRHSSNNFGPILPPTNVGSHTY-NH2
modifications: disulfide 4-9
SMILES: CC[C@H](C)[C@H](NC(=O)[C@@H]1CCCN1C(=O)CNC(=O)[C@H](Cc1ccccc1)NC(=O)[C@H](CC(N)=O)NC(=O)[C@H](CC(N)=O)NC(=O)[C@H](CO)NC(=O)[C@H](CO)NC(=O)[C@H](Cc1c[nH]cn1)NC(=O)[C@H](CCCNC(=N)N)NC(=O)[C@H](CC(C)C)NC(=O)[C@H](Cc1ccccc1)NC(=O)[C@H](CCC(=O)O)NC(=O)[C@H](C)NC(=O)[C@H](CC(C)C)NC(=O)[C@H](CCCNC(=N)N)NC(=O)[C@H](CCC(N)=O)NC(=O)[C@@H](NC(=O)[C@H](C)NC(=O)[C@@H]1CSSC[C@H](NC(=O)[C@H](CCCCN)NC(=O)[C@H](Cc2c[nH]cn2)NC(=O)[C@H](Cc2c[nH]cn2)NC(=O)CC[C@H](NC(=O)CCCCCCCCCCCCCCCCCCC(=O)O)C(=O)O)C(=O)N[C@@H](CC(N)=O)C(=O)N[C@@H]([C@@H](C)O)C(=O)N[C@@H](C)C(=O)N[C@@H]([C@@H](C)O)C(=O)N1)[C@@H](C)O)C(=O)N[C@@H](CC(C)C)C(=O)N1CCC[C@H]1C(=O)N1CCC[C@H]1C(=O)N[C@H](C(=O)N[C@@H](CC(N)=O)C(=O)N[C@H](C(=O)NCC(=O)N[C@@H](CO)C(=O)N[C@@H](Cc1c[nH]cn1)C(=O)N[C@H](C(=O)N[C@@H](Cc1ccc(O)cc1)C(N)=O)[C@@H](C)O)C(C)C)[C@@H](C)O
B4: N-epsilon25-[2-(2-{2-[2-(2-{2-[(S)-4-Carboxy-4-(17-carboxyheptadecanoylamino)butyrylamino]ethoxy}ethoxy)acetylamino]ethoxy}ethoxy)acetyl]-[Glu14,Ser21,Lys25]-pr … (peptide)
peptide: KCNTATCATQRLAEFLVHSSSNFGK([AEEA-AEEA-γGlu-C18 diacid])ILPPTNVGSNTY-NH2
modifications: disulfide 2-7; N-terminus assumed
SMILES: CC[C@H](C)[C@H](NC(=O)[C@H](CCCCNC(=O)COCCOCCNC(=O)COCCOCCNC(=O)CC[C@H](NC(=O)CCCCCCCCCCCCCCCCC(=O)O)C(=O)O)NC(=O)CNC(=O)[C@H](Cc1ccccc1)NC(=O)[C@H](CC(N)=O)NC(=O)[C@H](CO)NC(=O)[C@H](CO)NC(=O)[C@H](CO)NC(=O)[C@H](Cc1c[nH]cn1)NC(=O)[C@@H](NC(=O)[C@H](CC(C)C)NC(=O)[C@H](Cc1ccccc1)NC(=O)[C@H](CCC(=O)O)NC(=O)[C@H](C)NC(=O)[C@H](CC(C)C)NC(=O)[C@H](CCCNC(=N)N)NC(=O)[C@H](CCC(N)=O)NC(=O)[C@@H](NC(=O)[C@H](C)NC(=O)[C@@H]1CSSC[C@H](NC(=O)[C@@H](N)CCCCN)C(=O)N[C@@H](CC(N)=O)C(=O)N[C@@H]([C@@H](C)O)C(=O)N[C@@H](C)C(=O)N[C@@H]([C@@H](C)O)C(=O)N1)[C@@H](C)O)C(C)C)C(=O)N[C@@H](CC(C)C)C(=O)N1CCC[C@H]1C(=O)N1CCC[C@H]1C(=O)N[C@H](C(=O)N[C@@H](CC(N)=O)C(=O)N[C@H](C(=O)NCC(=O)N[C@@H](CO)C(=O)N[C@@H](CC(N)=O)C(=O)N[C@H](C(=O)N[C@@H](Cc1ccc(O)cc1)C(N)=O)[C@@H](C)O)C(C)C)[C@@H](C)O
B5: N-alpha-[(S)-4-Carboxy-4-(19-carboxynonadecanoylamino)butyryl]-His-[Glu14,Arg17,His35]-pramlintide (peptide)
peptide: {C20 diacid-γGlu}-HKCNTATCATQRLAEFLRHSSNNFGPILPPTNVGSHTY-NH2
modifications: disulfide 3-8
SMILES: CC[C@H](C)[C@H](NC(=O)[C@@H]1CCCN1C(=O)CNC(=O)[C@H](Cc1ccccc1)NC(=O)[C@H](CC(N)=O)NC(=O)[C@H](CC(N)=O)NC(=O)[C@H](CO)NC(=O)[C@H](CO)NC(=O)[C@H](Cc1c[nH]cn1)NC(=O)[C@H](CCCNC(=N)N)NC(=O)[C@H](CC(C)C)NC(=O)[C@H](Cc1ccccc1)NC(=O)[C@H](CCC(=O)O)NC(=O)[C@H](C)NC(=O)[C@H](CC(C)C)NC(=O)[C@H](CCCNC(=N)N)NC(=O)[C@H](CCC(N)=O)NC(=O)[C@@H](NC(=O)[C@H](C)NC(=O)[C@@H]1CSSC[C@H](NC(=O)[C@H](CCCCN)NC(=O)[C@H](Cc2c[nH]cn2)NC(=O)CC[C@H](NC(=O)CCCCCCCCCCCCCCCCCCC(=O)O)C(=O)O)C(=O)N[C@@H](CC(N)=O)C(=O)N[C@@H]([C@@H](C)O)C(=O)N[C@@H](C)C(=O)N[C@@H]([C@@H](C)O)C(=O)N1)[C@@H](C)O)C(=O)N[C@@H](CC(C)C)C(=O)N1CCC[C@H]1C(=O)N1CCC[C@H]1C(=O)N[C@H](C(=O)N[C@@H](CC(N)=O)C(=O)N[C@H](C(=O)NCC(=O)N[C@@H](CO)C(=O)N[C@@H](Cc1c[nH]cn1)C(=O)N[C@H](C(=O)N[C@@H](Cc1ccc(O)cc1)C(N)=O)[C@@H](C)O)C(C)C)[C@@H](C)O
B6: N-alpha-[(S)-4-Carboxy-4-(17-carboxyheptadecanoylamino)butyryl]-His-[Glu14,Arg17,His35]-pramlintide (peptide)
peptide: {C18 diacid-γGlu}-HKCNTATCATQRLAEFLRHSSNNFGPILPPTNVGSHTY-NH2
modifications: disulfide 3-8
SMILES: CC[C@H](C)[C@H](NC(=O)[C@@H]1CCCN1C(=O)CNC(=O)[C@H](Cc1ccccc1)NC(=O)[C@H](CC(N)=O)NC(=O)[C@H](CC(N)=O)NC(=O)[C@H](CO)NC(=O)[C@H](CO)NC(=O)[C@H](Cc1c[nH]cn1)NC(=O)[C@H](CCCNC(=N)N)NC(=O)[C@H](CC(C)C)NC(=O)[C@H](Cc1ccccc1)NC(=O)[C@H](CCC(=O)O)NC(=O)[C@H](C)NC(=O)[C@H](CC(C)C)NC(=O)[C@H](CCCNC(=N)N)NC(=O)[C@H](CCC(N)=O)NC(=O)[C@@H](NC(=O)[C@H](C)NC(=O)[C@@H]1CSSC[C@H](NC(=O)[C@H](CCCCN)NC(=O)[C@H](Cc2c[nH]cn2)NC(=O)CC[C@H](NC(=O)CCCCCCCCCCCCCCCCC(=O)O)C(=O)O)C(=O)N[C@@H](CC(N)=O)C(=O)N[C@@H]([C@@H](C)O)C(=O)N[C@@H](C)C(=O)N[C@@H]([C@@H](C)O)C(=O)N1)[C@@H](C)O)C(=O)N[C@@H](CC(C)C)C(=O)N1CCC[C@H]1C(=O)N1CCC[C@H]1C(=O)N[C@H](C(=O)N[C@@H](CC(N)=O)C(=O)N[C@H](C(=O)NCC(=O)N[C@@H](CO)C(=O)N[C@@H](Cc1c[nH]cn1)C(=O)N[C@H](C(=O)N[C@@H](Cc1ccc(O)cc1)C(N)=O)[C@@H](C)O)C(C)C)[C@@H](C)O

Biological target: T1, human calcitonin (a) receptor
Assay: cell-based or functional assay

Row | Binder | CTa receptor human EC50 [nM]
1 | B1 | 0.115
2 | B2 | 0.099
3 | B3 | 0.615
4 | B4 | 0.101
5 | B5 | 0.43
6 | B6 | 0.947

Biological target: T2, human amylin 3(a) receptor (human …)
Assay: cell-based or functional assay

Row | Binder | Amylin receptor human EC50 [nM]
7 | B1 | 0.0965
8 | B2 | 0.0585
9 | B3 | 0.101
10 | B4 | 0.089
11 | B5 | 0.0935
12 | B6 | 0.0795

Reference: patent US20130005646A1 (Novo Nordisk, published 2013)
